The results in this text go back to patent US10925971B2, “Methods of treating PRLR positive breast cancer” (Regeneron Pharmaceuticals, Inc., priority 2016, dated 2021).

In assay [1] the test system is HEK293 parental cells. The experiment in a line: FACS cell surface binding. More on the design: species or system human. Summed up:
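Values are mean fluorescence intensity relative to an isotype control (background). Antibodies at 10 μg/ml were incubated on ice for 30 min with HEK293 lines stably overexpressing HA-tagged species PRLR or with parental cells. A PE-conjugated anti-human secondary was used for detection.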

The target in assay [2] is T1, monomeric human PRLR (hPRLR.mmh; SEQ ID NO:401) (Homo sapiens, UniProt P16471).
T1 construct: soluble monomeric (hPRLR.mmh); mmh (myc-myc-hexahistidine) (C)
Kind of assay: Surface plasmon resonance (Biacore T200), antibody-capture format. It counts as binding. Particulars: analyte hPRLR.mmh. An outline of the steps:
(§1)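 Antibodies (human IgG1 Fc) captured on an anti-human Fc sensor surface; soluble monomeric (.mmh) or dimeric (.mFc) PRLR injected as analyte. ka and kd obtained by fitting to a 1:1 binding model.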
(In general: SPR reads the build-up and loss of mass on a sensor chip optically.)

Assay [3] addresses T2, dimeric human PRLR (hPRLR.mFc; SEQ ID NO:402) (Homo sapiens, UniProt P16471).
T2 construct: dimeric (hPRLR.mFc)
Described as above. It counts as binding. The following applies: analyte hPRLR.mFc. Summed up:
as §1

Assay [4] deals with Macaca fascicularis PRLR (mfPRLR.mmh; SEQ ID NO:403). The assay is described as above. Particulars: analyte mfPRLR.mmh. It counts as binding. An outline of the steps: as §1
Assay [5] has as its target T3, native PRLR expressing T47D cells (Homo sapiens, UniProt P16471).
T3 construct: a native PRLR expressing cell line (T47D); endogenous in cells; host or cells: T47D
T3 sequence (P16471 25-622): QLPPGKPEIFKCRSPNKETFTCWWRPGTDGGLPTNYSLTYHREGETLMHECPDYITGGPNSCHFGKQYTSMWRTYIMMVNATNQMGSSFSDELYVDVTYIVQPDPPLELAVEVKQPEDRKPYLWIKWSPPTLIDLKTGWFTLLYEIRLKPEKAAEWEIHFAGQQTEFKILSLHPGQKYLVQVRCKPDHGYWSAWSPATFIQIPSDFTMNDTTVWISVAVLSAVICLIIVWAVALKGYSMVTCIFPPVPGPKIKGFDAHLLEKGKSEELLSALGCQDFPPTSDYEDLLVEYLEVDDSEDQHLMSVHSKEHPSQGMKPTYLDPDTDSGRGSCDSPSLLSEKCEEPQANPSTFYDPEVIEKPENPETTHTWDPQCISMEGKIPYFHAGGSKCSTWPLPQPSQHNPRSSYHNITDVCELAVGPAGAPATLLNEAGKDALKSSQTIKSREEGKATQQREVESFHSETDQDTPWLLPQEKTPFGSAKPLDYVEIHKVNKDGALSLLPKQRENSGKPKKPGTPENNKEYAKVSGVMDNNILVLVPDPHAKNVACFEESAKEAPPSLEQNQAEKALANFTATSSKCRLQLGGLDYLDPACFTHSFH
Kind of assay: FACS cell surface binding. An outline of the steps: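 Binding expressed as mean fluorescence fold change above isotype background, measured by FACS after 30 min on ice with 10 μg/ml antibody and PE-conjugated anti-human detection. T47D, which natively expresses PRLR, tested with engineered HEK293/hPRLR and non-expressing HEK293 cells.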

In assay [6] the target is T4, human PRLR on HEK293/hPRLR cells (Homo sapiens, UniProt P16471).
T4 construct: HA; expressed in transfected cells; host or cells: HEK293
T4 sequence (P16471 25-622): T3 sequence (P16471 25-622)
The experiment in a line: FACS cell surface binding. An outline of the steps:
(§2)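 Stable HEK293 transfectants carrying HA-tagged PRLR (human, Macaca fascicularis, mouse) were selected ≥2 weeks in G418. Cells were exposed to 10 μg/ml test antibody on ice for 30 min, washed, and labelled with PE anti-human antibody. Fluorescence was reported as fold change versus isotype.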

Assay [7] concerns the target T5, mouse PRLR on HEK293/mPRLR cells (Mus musculus, UniProt Q08501).
T5 construct: HA; expressed in transfected cells; host or cells: HEK293
T5 sequence (Q08501 20-608): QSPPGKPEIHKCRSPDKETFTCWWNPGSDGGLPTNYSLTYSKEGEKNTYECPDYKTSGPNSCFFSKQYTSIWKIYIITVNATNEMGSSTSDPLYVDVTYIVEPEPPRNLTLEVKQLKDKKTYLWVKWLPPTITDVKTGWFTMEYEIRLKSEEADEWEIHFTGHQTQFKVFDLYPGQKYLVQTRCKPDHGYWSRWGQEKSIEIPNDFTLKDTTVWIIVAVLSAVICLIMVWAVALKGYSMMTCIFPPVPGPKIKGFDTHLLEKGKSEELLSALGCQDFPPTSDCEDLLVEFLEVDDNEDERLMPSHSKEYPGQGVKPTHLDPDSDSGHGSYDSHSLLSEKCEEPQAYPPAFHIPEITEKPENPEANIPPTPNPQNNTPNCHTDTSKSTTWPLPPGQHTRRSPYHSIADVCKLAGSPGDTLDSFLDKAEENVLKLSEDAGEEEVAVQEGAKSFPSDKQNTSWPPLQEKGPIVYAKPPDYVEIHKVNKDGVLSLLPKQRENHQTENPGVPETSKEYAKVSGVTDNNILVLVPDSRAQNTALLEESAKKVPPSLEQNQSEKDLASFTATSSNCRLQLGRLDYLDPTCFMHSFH
Kind of assay: FACS cell surface binding. An outline of the steps: as §2

Assay [8] deals with T6, monkey PRLR on HEK293/mfPRLR cells (Macaca fascicularis, UniProt A0A2K5WXK1).
T6 construct: HA; expressed in transfected cells; host or cells: HEK293
T6 sequence (A0A2K5WXK1 25-619): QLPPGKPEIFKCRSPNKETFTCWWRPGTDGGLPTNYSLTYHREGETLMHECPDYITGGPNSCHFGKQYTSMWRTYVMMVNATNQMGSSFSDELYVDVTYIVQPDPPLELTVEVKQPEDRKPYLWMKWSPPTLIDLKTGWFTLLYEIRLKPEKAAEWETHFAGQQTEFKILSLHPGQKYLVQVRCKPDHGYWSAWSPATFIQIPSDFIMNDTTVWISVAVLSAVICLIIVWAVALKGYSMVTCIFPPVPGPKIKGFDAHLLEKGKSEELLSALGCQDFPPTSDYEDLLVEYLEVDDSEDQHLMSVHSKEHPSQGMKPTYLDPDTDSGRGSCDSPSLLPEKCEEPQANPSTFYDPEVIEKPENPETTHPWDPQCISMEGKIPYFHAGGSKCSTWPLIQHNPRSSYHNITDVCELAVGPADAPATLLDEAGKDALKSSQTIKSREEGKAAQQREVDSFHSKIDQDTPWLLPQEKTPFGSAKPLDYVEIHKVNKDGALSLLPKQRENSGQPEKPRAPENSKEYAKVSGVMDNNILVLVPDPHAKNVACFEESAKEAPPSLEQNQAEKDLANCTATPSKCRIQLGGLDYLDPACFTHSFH
The experiment in a line: FACS cell surface binding. Summed up:
as §2

T1 sequence (P16471 with tags, fused parts or gaps): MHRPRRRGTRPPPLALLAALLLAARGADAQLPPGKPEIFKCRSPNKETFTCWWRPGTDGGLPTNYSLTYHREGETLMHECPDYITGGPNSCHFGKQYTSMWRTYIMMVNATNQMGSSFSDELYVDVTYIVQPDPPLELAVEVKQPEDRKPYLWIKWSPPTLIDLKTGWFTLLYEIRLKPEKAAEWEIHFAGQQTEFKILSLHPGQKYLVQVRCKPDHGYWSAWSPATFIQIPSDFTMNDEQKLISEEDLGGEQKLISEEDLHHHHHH
Macaca fascicularis PRLR (mfPRLR.mmh; SEQ ID NO:403), sequence (as listed by the source): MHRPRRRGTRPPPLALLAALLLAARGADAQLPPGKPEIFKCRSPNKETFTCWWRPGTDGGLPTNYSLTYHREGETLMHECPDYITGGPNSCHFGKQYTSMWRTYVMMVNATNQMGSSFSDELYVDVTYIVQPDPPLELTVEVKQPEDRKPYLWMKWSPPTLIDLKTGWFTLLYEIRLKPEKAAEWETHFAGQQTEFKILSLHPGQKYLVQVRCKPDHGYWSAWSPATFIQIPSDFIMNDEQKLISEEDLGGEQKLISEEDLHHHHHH
T2 sequence (P16471 with tags, fused parts or gaps): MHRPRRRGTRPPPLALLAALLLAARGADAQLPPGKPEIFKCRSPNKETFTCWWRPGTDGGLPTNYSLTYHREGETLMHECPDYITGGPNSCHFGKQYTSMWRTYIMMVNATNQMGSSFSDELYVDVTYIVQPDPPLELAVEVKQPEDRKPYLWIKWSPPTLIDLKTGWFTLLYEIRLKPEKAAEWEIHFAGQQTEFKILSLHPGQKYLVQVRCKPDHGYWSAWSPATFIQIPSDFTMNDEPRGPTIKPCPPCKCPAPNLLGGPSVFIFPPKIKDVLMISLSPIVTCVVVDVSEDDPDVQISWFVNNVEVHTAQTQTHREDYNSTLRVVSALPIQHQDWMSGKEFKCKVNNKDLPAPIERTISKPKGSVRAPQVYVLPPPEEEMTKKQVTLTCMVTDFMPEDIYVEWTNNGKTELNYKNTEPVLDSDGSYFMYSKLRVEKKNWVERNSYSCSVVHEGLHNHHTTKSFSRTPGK

B1: H1H6803P: fully human anti-PRLR antibody, human IgG1 Fc; HCVR/LCVR SEQ ID NOs 226/234 (antibody, V domains shown)
VH: EVQLVESGGGVVRPGGSLRLSCAASGFKFDDYGMTWVRHVPGKGLEWVSGINWNGGRTGYTDSVKGRFTISRDNAKNSLYLQMNSLRAEDTALYHCAGARRDAFDIWGQGTMVTVSS
VL: DIQMTQSPSSLSASIGDRVTITCRASQNIIKYLNWYQQNAGKAPKLLIYTASSLQSGVPSRFSGSGSGTDFTLTISSLQPEDFATYYCQQSSSSPYTFGQGTKLEIK
With B1, the “FACS Cell Binding” value was determined as 1 Fold Above Background in assay [1]; 39 Fold Above Background in assay [5]; 39 Fold Above Background in assay [6]; 1 Fold Above Background in assay [7]; 28 Fold Above Background in assay [8]. Besides, the ka in assay [2] (25° C.) is 82400 M/s; in assay [2] (37° C.) it was 129000 M/s; in assay [3] (25° C.), 104000 M/s; in assay [3] (37° C.), 134000 M/s; in assay [4] (25° C.) it was 62100 M/s; in assay [4] (37° C.), 87300 M/s. Further, the kd is 0.000137 s⁻¹ in assay [2] (25° C.); 0.000364 s⁻¹ in assay [2] (37° C.); 6.29e-05 s⁻¹ in assay [3] (25° C.); 6.2e-05 s⁻¹ in assay [3] (37° C.); 0.000209 s⁻¹ in assay [4] (25° C.); 0.000636 s⁻¹ in assay [4] (37° C.).

B2: H1H6804P: fully human anti-PRLR antibody, human IgG1 Fc; HCVR/LCVR SEQ ID NOs 242/250 (antibody, V domains shown)
VH: QVTLKESGPVLVKPTQTLSLTCTVSGFSLSDAGMGVSWIRQPPGKALEWLAHIFSNDGKSYSTSLKSRLTISKDTSKRQVVLTMTNMDPVDTATYYCARIRTGTYSLYLDYWGQGTLVTVSS
VL: DIQMTQSPSSLSASVGDRVTITCRASQSINSYLNWYQQKPGKAPKLLLYFASSLQSGVPSRFSGSGSGTDFTLTISSLQPEDFASYYCQESYSTPWTFGQGTKVEIK
For B2, the “FACS Cell Binding” value in assay [1] was found to be 1 Fold Above Background; in assay [5] it was 34 Fold Above Background; in assay [6] it was 1 Fold Above Background; in assay [7] it was 1 Fold Above Background; in assay [8], 29 Fold Above Background. The ka in assay [2] (25° C.) was determined as 453000 M/s; in assay [2] (37° C.) it was 607000 M/s; in assay [3] (25° C.), 451000 M/s; in assay [3] (37° C.), 554000 M/s; in assay [4] (25° C.), 331000 M/s; in assay [4] (37° C.) it was 455000 M/s. Moreover, the kd came out at 0.000634 s⁻¹ in assay [2] (25° C.); 0.00385 s⁻¹ in assay [2] (37° C.); 8.69e-05 s⁻¹ in assay [3] (25° C.); 0.000205 s⁻¹ in assay [3] (37° C.); 0.000657 s⁻¹ in assay [4] (25° C.); 0.00426 s⁻¹ in assay [4] (37° C.).
